To fix the notation:
T1: FcγRIIa H (FcγRIIa type H, His at position 131), extracellular domain with C-terminal His tag (human, UniProt P12318 34-217)
T1 construct: extracellular domain; also called FcgRIIa H; 2aH
T1 sequence (looked up): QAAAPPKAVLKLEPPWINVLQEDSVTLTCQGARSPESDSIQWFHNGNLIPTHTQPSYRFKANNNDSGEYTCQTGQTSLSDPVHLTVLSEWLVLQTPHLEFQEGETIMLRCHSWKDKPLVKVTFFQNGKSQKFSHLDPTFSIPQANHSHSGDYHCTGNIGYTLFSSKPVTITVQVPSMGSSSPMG

B1: GpH7-B3 variant K334_03V/GpL16-k0 (antibody, human IgG1, kappa)
heavy: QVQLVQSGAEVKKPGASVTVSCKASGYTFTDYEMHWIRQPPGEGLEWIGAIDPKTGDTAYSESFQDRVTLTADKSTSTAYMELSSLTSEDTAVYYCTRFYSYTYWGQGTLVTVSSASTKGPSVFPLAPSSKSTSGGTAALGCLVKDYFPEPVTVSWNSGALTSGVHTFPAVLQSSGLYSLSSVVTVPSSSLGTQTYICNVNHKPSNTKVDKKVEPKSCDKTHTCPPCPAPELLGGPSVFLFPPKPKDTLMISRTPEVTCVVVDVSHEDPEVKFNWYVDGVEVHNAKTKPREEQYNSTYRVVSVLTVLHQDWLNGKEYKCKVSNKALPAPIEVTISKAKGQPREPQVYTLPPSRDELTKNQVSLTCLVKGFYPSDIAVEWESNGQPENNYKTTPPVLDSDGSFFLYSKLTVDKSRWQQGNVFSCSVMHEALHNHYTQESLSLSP
light: DIVMTQSPLSLPVTPGEPASISCQASESLVHSNRNTYLHWYLQKPGQSPQLLIYKVSNRFSGVPDRFSGSGSGTDFTLKISRVEAEDVGVYYCSQNTHVPPTFGQGTKVEIERTVAAPSVFIFPPSDEQLKSGTASVVCLLNNFYPREAKVQWKVDNALQSGNSQESVTEQDSKDSTYSLSSTLTLSKADYEKHKVYACEVTHQGLSSPVTKSFNRGEC
notes: both H chains mutated; also called Ho Ab
B2: GpH7-B3 variant L235_20W/GpL16-k0 (antibody, human IgG1, kappa)
heavy: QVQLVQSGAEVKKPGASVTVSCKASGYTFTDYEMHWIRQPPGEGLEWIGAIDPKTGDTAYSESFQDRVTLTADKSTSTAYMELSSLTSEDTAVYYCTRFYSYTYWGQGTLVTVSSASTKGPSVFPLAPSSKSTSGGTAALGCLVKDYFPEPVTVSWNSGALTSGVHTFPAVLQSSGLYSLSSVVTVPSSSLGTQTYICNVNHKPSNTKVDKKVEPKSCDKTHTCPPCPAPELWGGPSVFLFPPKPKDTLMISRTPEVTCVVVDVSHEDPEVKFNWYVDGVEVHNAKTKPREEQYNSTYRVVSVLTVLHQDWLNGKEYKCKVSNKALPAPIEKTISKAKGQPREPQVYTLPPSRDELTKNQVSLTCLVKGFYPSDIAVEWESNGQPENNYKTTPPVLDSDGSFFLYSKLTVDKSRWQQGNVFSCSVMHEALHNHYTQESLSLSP
light: DIVMTQSPLSLPVTPGEPASISCQASESLVHSNRNTYLHWYLQKPGQSPQLLIYKVSNRFSGVPDRFSGSGSGTDFTLKISRVEAEDVGVYYCSQNTHVPPTFGQGTKVEIERTVAAPSVFIFPPSDEQLKSGTASVVCLLNNFYPREAKVQWKVDNALQSGNSQESVTEQDSKDSTYSLSSTLTLSKADYEKHKVYACEVTHQGLSSPVTKSFNRGEC
notes: as for B1
B3: GpH7-B3 variant K334_08L/GpL16-k0 (antibody, human IgG1, kappa)
heavy: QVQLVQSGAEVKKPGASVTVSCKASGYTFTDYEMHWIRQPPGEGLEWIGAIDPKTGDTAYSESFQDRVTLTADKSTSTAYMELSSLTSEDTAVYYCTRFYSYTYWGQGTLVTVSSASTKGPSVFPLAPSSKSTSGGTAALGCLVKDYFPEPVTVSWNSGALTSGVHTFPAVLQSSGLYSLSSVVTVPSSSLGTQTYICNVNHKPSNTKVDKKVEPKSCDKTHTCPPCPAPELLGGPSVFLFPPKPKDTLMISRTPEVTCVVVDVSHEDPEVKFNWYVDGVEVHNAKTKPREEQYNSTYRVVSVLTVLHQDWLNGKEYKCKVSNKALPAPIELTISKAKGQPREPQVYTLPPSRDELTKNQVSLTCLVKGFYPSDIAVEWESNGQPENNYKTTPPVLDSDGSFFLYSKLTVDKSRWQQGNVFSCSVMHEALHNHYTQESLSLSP
light: DIVMTQSPLSLPVTPGEPASISCQASESLVHSNRNTYLHWYLQKPGQSPQLLIYKVSNRFSGVPDRFSGSGSGTDFTLKISRVEAEDVGVYYCSQNTHVPPTFGQGTKVEIERTVAAPSVFIFPPSDEQLKSGTASVVCLLNNFYPREAKVQWKVDNALQSGNSQESVTEQDSKDSTYSLSSTLTLSKADYEKHKVYACEVTHQGLSSPVTKSFNRGEC
notes: as for B1
B4: GpH7-B3 variant K334_07[ (read as K334_07I)/GpL16-k0 (antibody, human IgG1, kappa)
heavy: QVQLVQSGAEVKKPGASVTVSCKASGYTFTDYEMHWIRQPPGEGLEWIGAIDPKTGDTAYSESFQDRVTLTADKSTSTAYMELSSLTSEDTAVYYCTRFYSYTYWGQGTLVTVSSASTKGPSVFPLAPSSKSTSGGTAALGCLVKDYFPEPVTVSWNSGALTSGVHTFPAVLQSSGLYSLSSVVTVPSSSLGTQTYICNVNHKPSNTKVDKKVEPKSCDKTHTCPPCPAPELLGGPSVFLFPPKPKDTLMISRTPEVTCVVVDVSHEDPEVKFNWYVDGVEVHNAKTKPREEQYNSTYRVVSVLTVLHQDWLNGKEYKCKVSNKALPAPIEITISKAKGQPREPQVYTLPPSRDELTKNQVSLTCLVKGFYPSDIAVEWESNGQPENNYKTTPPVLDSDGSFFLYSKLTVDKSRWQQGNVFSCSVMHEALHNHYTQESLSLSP
light: DIVMTQSPLSLPVTPGEPASISCQASESLVHSNRNTYLHWYLQKPGQSPQLLIYKVSNRFSGVPDRFSGSGSGTDFTLKISRVEAEDVGVYYCSQNTHVPPTFGQGTKVEIERTVAAPSVFIFPPSDEQLKSGTASVVCLLNNFYPREAKVQWKVDNALQSGNSQESVTEQDSKDSTYSLSSTLTLSKADYEKHKVYACEVTHQGLSSPVTKSFNRGEC
notes: as for B1
B5: GpH7-B3 variant K334_14T/GpL16-k0 (antibody, human IgG1, kappa)
heavy: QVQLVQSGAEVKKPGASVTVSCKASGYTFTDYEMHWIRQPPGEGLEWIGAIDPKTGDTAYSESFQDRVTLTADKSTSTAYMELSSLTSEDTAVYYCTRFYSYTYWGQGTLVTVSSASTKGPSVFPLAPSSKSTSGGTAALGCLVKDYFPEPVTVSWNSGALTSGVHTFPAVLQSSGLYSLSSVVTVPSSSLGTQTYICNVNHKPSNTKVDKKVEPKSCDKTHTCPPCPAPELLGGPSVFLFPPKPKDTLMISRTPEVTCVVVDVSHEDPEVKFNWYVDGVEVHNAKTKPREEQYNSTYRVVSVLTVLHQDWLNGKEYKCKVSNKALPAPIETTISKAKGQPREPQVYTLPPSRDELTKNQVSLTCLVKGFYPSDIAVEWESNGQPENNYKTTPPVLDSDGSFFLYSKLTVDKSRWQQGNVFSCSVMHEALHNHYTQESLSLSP
light: DIVMTQSPLSLPVTPGEPASISCQASESLVHSNRNTYLHWYLQKPGQSPQLLIYKVSNRFSGVPDRFSGSGSGTDFTLKISRVEAEDVGVYYCSQNTHVPPTFGQGTKVEIERTVAAPSVFIFPPSDEQLKSGTASVVCLLNNFYPREAKVQWKVDNALQSGNSQESVTEQDSKDSTYSLSSTLTLSKADYEKHKVYACEVTHQGLSSPVTKSFNRGEC
notes: as for B1
B6: GpH7-B3 variant K334_15Y/GpL16-k0 (antibody, human IgG1, kappa)
heavy: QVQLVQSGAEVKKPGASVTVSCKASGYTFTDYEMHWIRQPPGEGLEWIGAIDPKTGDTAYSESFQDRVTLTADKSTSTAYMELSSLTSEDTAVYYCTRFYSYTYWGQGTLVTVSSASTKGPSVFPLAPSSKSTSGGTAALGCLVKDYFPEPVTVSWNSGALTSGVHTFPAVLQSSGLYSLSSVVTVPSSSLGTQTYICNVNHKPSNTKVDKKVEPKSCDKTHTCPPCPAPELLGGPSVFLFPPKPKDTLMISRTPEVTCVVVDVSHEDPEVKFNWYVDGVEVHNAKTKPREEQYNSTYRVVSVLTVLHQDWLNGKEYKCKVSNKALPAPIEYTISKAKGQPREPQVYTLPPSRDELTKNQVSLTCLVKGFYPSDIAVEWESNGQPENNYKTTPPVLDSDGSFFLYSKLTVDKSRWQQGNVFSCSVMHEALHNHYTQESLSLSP
light: DIVMTQSPLSLPVTPGEPASISCQASESLVHSNRNTYLHWYLQKPGQSPQLLIYKVSNRFSGVPDRFSGSGSGTDFTLKISRVEAEDVGVYYCSQNTHVPPTFGQGTKVEIERTVAAPSVFIFPPSDEQLKSGTASVVCLLNNFYPREAKVQWKVDNALQSGNSQESVTEQDSKDSTYSLSSTLTLSKADYEKHKVYACEVTHQGLSSPVTKSFNRGEC
notes: as for B1
B7: GpH7-B3 variant K334_04F/GpL16-k0 (antibody, human IgG1, kappa)
heavy: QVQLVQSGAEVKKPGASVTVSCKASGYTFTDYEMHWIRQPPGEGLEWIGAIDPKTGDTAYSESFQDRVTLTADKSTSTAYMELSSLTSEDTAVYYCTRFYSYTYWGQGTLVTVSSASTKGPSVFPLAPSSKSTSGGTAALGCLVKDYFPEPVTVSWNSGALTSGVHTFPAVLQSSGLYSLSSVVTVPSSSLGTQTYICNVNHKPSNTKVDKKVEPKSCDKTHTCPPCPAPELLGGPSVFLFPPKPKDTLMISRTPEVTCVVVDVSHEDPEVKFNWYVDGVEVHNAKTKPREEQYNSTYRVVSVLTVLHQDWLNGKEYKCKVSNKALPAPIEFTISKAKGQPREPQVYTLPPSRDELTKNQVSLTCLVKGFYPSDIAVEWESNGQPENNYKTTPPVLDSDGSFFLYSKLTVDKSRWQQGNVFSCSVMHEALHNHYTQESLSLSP
light: DIVMTQSPLSLPVTPGEPASISCQASESLVHSNRNTYLHWYLQKPGQSPQLLIYKVSNRFSGVPDRFSGSGSGTDFTLKISRVEAEDVGVYYCSQNTHVPPTFGQGTKVEIERTVAAPSVFIFPPSDEQLKSGTASVVCLLNNFYPREAKVQWKVDNALQSGNSQESVTEQDSKDSTYSLSSTLTLSKADYEKHKVYACEVTHQGLSSPVTKSFNRGEC
notes: as for B1
B8: GpH7-B3 variant K334_16H/GpL16-k0 (antibody, human IgG1, kappa)
heavy: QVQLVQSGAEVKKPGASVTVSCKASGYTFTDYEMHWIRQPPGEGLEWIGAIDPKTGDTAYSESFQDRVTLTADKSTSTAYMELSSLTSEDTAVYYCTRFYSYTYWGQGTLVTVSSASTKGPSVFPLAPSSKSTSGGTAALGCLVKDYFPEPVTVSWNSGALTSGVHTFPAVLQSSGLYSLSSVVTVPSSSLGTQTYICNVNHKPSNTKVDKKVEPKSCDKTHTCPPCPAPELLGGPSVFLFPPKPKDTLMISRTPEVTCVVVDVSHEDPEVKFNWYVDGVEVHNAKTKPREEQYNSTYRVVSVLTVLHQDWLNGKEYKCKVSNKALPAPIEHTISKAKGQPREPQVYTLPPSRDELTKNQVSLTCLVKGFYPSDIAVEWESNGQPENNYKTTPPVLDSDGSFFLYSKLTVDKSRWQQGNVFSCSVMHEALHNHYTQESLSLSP
light: DIVMTQSPLSLPVTPGEPASISCQASESLVHSNRNTYLHWYLQKPGQSPQLLIYKVSNRFSGVPDRFSGSGSGTDFTLKISRVEAEDVGVYYCSQNTHVPPTFGQGTKVEIERTVAAPSVFIFPPSDEQLKSGTASVVCLLNNFYPREAKVQWKVDNALQSGNSQESVTEQDSKDSTYSLSSTLTLSKADYEKHKVYACEVTHQGLSSPVTKSFNRGEC
notes: as for B1

The assay deals with T1, FcγRIIa H (FcγRIIa type H, His at …). The assay is described as follows: SPR Biacore, relative binding, GpH7-B3/GpL16-k0 (HoCon Ab)=100. The method, then:
Analysis of interaction between objective antibody and the FcγR was carried out using Biacore T100 (GE Healthcare). HBS-EP+ (GE Healthcare) was used as the running buffer, and the measurement temperature was set to 25° C. Chips produced by immobilizing the antigen peptide by the amine coupling method to a Series S Sencor Chip CM5 (GE Healthcare), or alternatively, chips produced by allowing preliminarily biotinylated antigen peptides to interact with and immobilize onto a Series S Sensor Chip SA (certified) (GE Healthcare) were used. Antibodies of interest were captured onto an antigen peptide-immobilized chip, and allowed to interact to each FcγR diluted with running buffer. To regenerate and repeatedly use the chip, the antibodies captured on the chip were washed off by reacting 10 mM glycine-HCl, pH 1.5.
In general terms: SPR reads the build-up and loss of mass on a sensor chip optically.
Regarding B1, the Ho/Con_2aH was 111 % of control.
The figure for B2 is 112 % of control; for B3 it is 103 % of control; for B4 it is 116 % of control.
The figure for B5 is 105 % of control.
Turning to B6, the Ho/Con_2aH was 110 % of control.
With B7, the Ho/Con_2aH was 103 % of control.
The same measure for B8: 101 % of control.
